According to the supplement of paper PMC5998384:

Key:
HeLa Kyoto [1] = experiment: thermal stability score vs G1/S (z-score of summed log2 fold changes over temperatures); higher = more thermally stable than in G1/S
HeLa Kyoto [2] = experiment: solubility in G1/S (NP-40 vs SDS abundance) (log2 ratio); higher = more soluble; details: cell cycle stage: G1/S
HeLa Kyoto [3] = experiment: solubility change mitosis vs G1/S (difference of NP-40 vs SDS log2 ratios) (log2 ratio difference); higher = more soluble in mitosis
HeLa Kyoto [4] = experiment: melting temperature (median over replicates), in situ; higher = more thermally stable
[5] = cell cycle stage: early G1 (4.5 h after nocodazole release)
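For melting temperature (median over replicates), in situ in this document: HeLa Kyoto cells synchronized by double thymidine or nocodazole block, proteins quantified by TMT10plex mass spectrometry, three independent biological replicates.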
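For solubility change mitosis vs G1/S (difference of NP-40 vs SDS log2 ratios) in this document: synchronized HeLa Kyoto cells (double thymidine block for G1/S, nocodazole release for mitosis), protein amounts in NP-40 versus SDS lysates quantified by mass spectrometry, three biological replicates.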
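For solubility in G1/S (NP-40 vs SDS abundance) in this document: HeLa Kyoto cells arrested at G1/S by double thymidine block, proteins quantified by TMT10plex mass spectrometry in mild NP-40 versus SDS extracts, three biological replicates.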
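For thermal stability score vs G1/S (z-score of summed log2 fold changes over temperatures) in this document: synchronized HeLa Kyoto cells, proteins quantified by TMT10plex mass spectrometry, three biological replicates, mitosis taken 0.5 h after nocodazole release, G1/S directly after double thymidine block.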

Sequence	thermal stability score (HeLa Kyoto [1]; [5])	thermal stability score (HeLa Kyoto [1]; cell cycle stage: mitosis)	solubility in G1/S (log2) (HeLa Kyoto [2])	solubility change mitosis (log2) (HeLa Kyoto [3])	melting temperature (HeLa Kyoto [4]; cell cycle stage: G1/S)	melting temperature (HeLa Kyoto [4]; cell cycle stage: mitosis)
MSASAPAAEGEGTPTQPASEKEPEMPGPREESEEEEDEDDEEEEEEEKEKSLIVEGKREKKKVERLTMQVSSLQREPFTIAQGKGQKLCEIERIHFFLSKKKTDELRNLHKLLYNRPGTVSSLKKNVGQFSGFPFEKGSVQYKKKEEMLKKFRNAMLKSICEVLDLERSGVNSELVKRILNFLMHPKPSGKPLPKSKKTCSKGSKKERNSSGMARKAKRTKCPEILSDESSSDEDEKKNKEESSDDEDKESEEEPPKKTAKREKPKQKATSKSKKSVKSANVKKADSSTTKKNQNSSKKESESEDSSDDEPLIKKLKKPPTDEELKETIKKLLASANLEEVTMKQICKKVYENYPTYDLTERKDFIKTTVKELIS	7.97	13.2	-0.0398	0.338	48.8 °C	50.7 °C
MPRDNMASLIQRIARQACLTFRGSGGGRGASDRDAASGPEAPMQPGFPENLSKLKSLLTQLRAEDLNIAPRKATLQPLPPNLPPVTYMHIYETDGFSLGVFLLKSGTSIPLHDHPGMHGMLKVLYGTVRISCMDKLDAGGGQRPRALPPEQQFEPPLQPREREAVRPGVLRSRAEYTEASGPCILTPHRDNLHQIDAVEGPAAFLDILAPPYDPDDGRDCHYYRVLEPVRPKEASSSACDLPREVWLLETPQADDFWCEGEPYPGPKVFP [ADO]	-2.72	-3.58	0.474	0.0512	54.1 °C	53.7 °C
MAAAVGVRGRYELPPCSGPGWLLSLSALLSVAARGAFATTHWVVTEDGKIQQQVDSPMNLKHPHDLVILMRQEATVNYLKELEKQLVAQKIHIEENEDRDTGLEQRHNKEDPDCIKAKVPLGDLDLYDGTYITLESKDISPEDYIDTESPVPPDPEQPDCTKILELPYSIHAFQHLRGVQERVNLSAPLLPKEDPIFTYLSKRLGRSIDDIGHLIHEGLQKNTSSWVLYNMASFYWRIKNEPYQVVECAMRALHFSSRHNKDIALVNLANVLHRAHFSADAAVVVHAALDDSDFFTSYYTLGNIYAMLGEYNHSVLCYDHALQARPGFEQAIKRKHAVLCQQKLEQKLEAQHRSLQRTLNELKEYQKQHDHYLRQQEILEKHKLIQEEQILRNIIHETQMAKEAQLGNHQICRLVNQQHSLHCQWDQPVRYHRGDIFENVDYVQFGEDSSTSSMMSVNFDVQSNQSDINDSVKSSPVAHSILWIWGRDSDAYRDKQHILWPKRADCTESYPRVPVGGELPTYFLPPENKGLRIHELSSDDYSTEEEAQTPDCSITDFRKSHTLSYLVKELEVRMDLKAKMPDDHARKILLSRINNYTIPEEEIGSFLFHAINKPNAPIWLILNEAGLYWRAVGNSTFAIACLQRALNLAPLQYQDVPLVNLANLLIHYGLHLDATKLLLQALAINSSEPLTFLSLGNAYLALKNISGALEAFRQALKLTTKCPECENSLKLIRCMQFYPFLYNITSSVCSGTVVEESNGSDEMENSDETKMSEEILALVDEFQQAWPLEGFGGALEMKGRRLDLQGIRVLKKGPQDGVARSSCYGDCRSEDDEATEWITFQVKRVKKPKGDHKKTPGKKVETGQIENGHRYQANLEITGPKVASPGPQGKKRDYQRLGWPSPDECLKLRWVELTAIVSTWLAVSSKNIDITEHIDFATPIQQPAMEPLCNGNLPTSMHTLDHLHGVSNRASLHYTGESQLTEVLQNLGKDQYPQQSLEQIGTRIAKVLEKNQTSWVLSSMAALYWRVKGQGKKAIDCLRQALHYAPHQMKDVPLISLANILHNAKLWNDAVIVATMAVEIAPHFAVNHFTLGNVYVAMEEFEKALVWYESTLKLQPEFVPAKNRIQTIQCHLMLKKGRRSP [TTC17]	2.32	2.24	0.107	0.0442	54.8 °C	56.8 °C
MAGTRWVLGALLRGCGCNCSSCRRTGAACLPFYSAAGSIPSGVSGRRRLLLLLGAAAAAASQTRGLQTGPVPPGRLAGPPAVATSAAAAAAASYSALRASLLPQSLAAAAAVPTRSYSQESKTTYLEDLPPPPEYELAPSKLEEEVDDVFLIRAQGLPWSCTMEDVLNFFSDCRIRNGENGIHFLLNRDGKRRGDALIEMESEQDVQKALEKHRMYMGQRYVEVYEINNEDVDALMKSLQVKSSPVVNDGVVRLRGLPYSCNEKDIVDFFAGLNIVDITFVMDYRGRRKTGEAYVQFEEPEMANQALLKHREEIGNRYIEIFPSRRNEVRTHVGSYKGKKIASFPTAKYITEPEMVFEEHEVNEDIQPMTAFESEKEIELPKEVPEKLPEAADFGTTSSLHFVHMRGLPFQANAQDIINFFAPLKPVRITMEYSSSGKATGEADVHFETHEDAVAAMLKDRSHVHHRYIELFLNSCPKGK [GRSF1]	0.523	3.06	0.345	-0.0298	47.9 °C	49.1 °C
